Legend:
[1] = target: T1, HER2 expressed on SK-BR-3 cell surface (UniProt P04626 23-1255, limits assumed); experiment: flow cytometry on SK-BR-3 cells; unmasked reference of the comparison (higher potency than uncut)
T1 construct: whole, on cells; also called cell surface HER2; HER2-expressing SK-BR-3 cells
From the text: (§1) Flow cytometry-based binding assays were also employed to evaluate the binding to HER2 expressed on cell surface by exemplary HER2 x VEGF bispecific antibodies with or without IGF2 masking domain (FIG. 10). In these assays, increasing concentrations of exemplary HER2 x VEGF bispecific antibodies were applied to HER2-expressing SK-BR-3 cells and their bindings to cell surface HER2 were detected by PE-conjugated anti-human secondary antibody by MacsQuant flow cytometer.

[2] = target: T2, recombinant human HER2 (R&D systems) (human, UniProt P04626 23-652); experiment: ELISA, recombinant human HER2 coated; unmasked reference of the comparison (higher potency than uncut)
Protocol: (§2) ELISA-based binding assays were employed to evaluate the binding to HER2 by exemplary HER2 x VEGF bispecific antibodies with or without IGF2 masking domain (FIG. 9). In these assays, 1 μg/mL recombinant human HER2 (R&D systems) were coated on ELISA plate. Increasing concentrations of exemplary HER2 x VEGF bispecific antibodies were applied on the plate and their bindings to the recombinant human HER2 were detected by HRP-conjugated anti-human IgG secondary antibody.

[3] = target: T2, recombinant human HER2 (R&D systems); experiment: ELISA, recombinant human HER2 coated; masked antibody, not digested
Protocol: as §2

[4] = target: T1, HER2 expressed on SK-BR-3 cell surface; experiment: flow cytometry on SK-BR-3 cells; masked antibody, not digested
From the text: as §1

[5] = target: T1, HER2 expressed on SK-BR-3 cell surface; experiment: flow cytometry on SK-BR-3 cells, PE anti-human secondary
From the text: as §1

[6] = target: T2, recombinant human HER2 (R&D systems); experiment: ELISA, recombinant human HER2 coated at 1 ug/mL, anti-human IgG-HRP
Protocol: as §2

[7] = target: recombinant human PD-L1 (R&D systems) (human, UniProt Q9NZQ7 19-239); experiment: ELISA, recombinant human PD-L1 coated at 1 ug/mL, anti-human IgG-HRP
recombinant human PD-L1 (R&D systems), sequence (Q9NZQ7 19-239 limits assumed): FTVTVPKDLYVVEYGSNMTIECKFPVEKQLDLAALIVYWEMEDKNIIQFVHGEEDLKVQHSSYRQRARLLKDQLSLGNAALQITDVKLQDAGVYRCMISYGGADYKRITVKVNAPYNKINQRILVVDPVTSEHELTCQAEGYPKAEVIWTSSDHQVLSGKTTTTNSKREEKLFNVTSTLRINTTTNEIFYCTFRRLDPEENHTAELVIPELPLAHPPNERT
Protocol: ELISA-based binding assays were employed to evaluate the binding to PD-L1 by these bispecific antibodies (FIG. 31A). In these assays, 1 μg/mL recombinant human PD-L1 (R&D systems) were coated on ELISA plate. Increasing concentrations of exemplary HER2 x VEGF bispecific antibodies with ScFv of an anti-PD-L1 antibody as a homing domain were applied on the plate and their bindings to the recombinant human PD-L1 were detected by HRP-conjugated anti-human IgG secondary antibody.

Binder | binding result [1] | binding result [2] | binding result [7] | also measured
TrasVH1VL1 x BevaVH3VL1_IgG1_LS (bispecific antibody) heavy 1: QVQLVQSGAEVKKPGSSVKVSCKASGFNIKDTYIHWVRQAPGQGLEWMGRIYPTNGYTRYAQKFQGRATITADESTSTAYMEVSSLRSEDTAVYYCSRWGGDGFYAMDYWGQGTLVTVSSASTKGPSVFPLAPSSKSTSGGTAALGCLVKDYFPEPVTVSWNSGALTSGVHTFPAVLQSSGLYSLSSVVTVPSSSLGTQTYICNVNHKPSNTKVDKKVEPKSCDKTHTCPPCPAPELLGGPSVFLFPPKPKDTLMISRTPEVTCVVVDVSHEDPEVKFNWYVDGVEVHNAKTKPREEQYNSTYRVVSVLTVLHQDWLNGKEYKCKVSNKALPAPIEKTISKAKGQPREPQVYTLPPSRDELTKNQVSLTCLVKGFYPSDIAVEWESNGQPENNYKTTPPVLDSDGSFLLYSKLTVDKSRWQQGNVFSCSVLHEALHSHYTQKSLSLSPGK light 1: DIVMTQTPLSLPVTPGEPASISCRASQDVNTAVAWYLQKPGQSPQLLIYSASFRYTGVPDRFSGSGSGTDFTLKISRVEAEDVGVYYCQQHYTTPPTFGQGTKVEIKRTVAAPSVFIFPPSDEQLKSGTASVVCLLNNFYPREAKVQWKVDNALQSGNSQESVTEQDSKDSTYSLSSTLTLSKADYEKHKVYACEVTHQGLSSPVTKSFNRGEC heavy 2: QVQLVQSGAEVKKPGSSVKVSCKASGYTFTNYGMNWVRQAPGQGLEWMGWINTYTGEPTYAQKFQGRVTITADESTSTAYMELSSLRSEDTAVYYCAKYPHYYGSSHWYFDVWGQGTLVTVSSASTKGPSVFPLAPSSKSTSGGTAALGCLVKDYFPEPVTVSWNSGALTSGVHTFPAVLQSSGLYSLSSVVTVPSSSLGTQTYICNVNHKPSNTKVDKKVEPKSCDKTHTCPPCPAPELLGGPSVFLFPPKPKDTLMISRTPEVTCVVVDVSHEDPEVKFNWYVDGVEVHNAKTKPREEQYNSTYRVVSVLTVLHQDWLNGKEYKCKVSNKALPAPIEKTISKAKGQPREPQVYTLPPSRDELTKNQVSLTCLVKGFYPSDIAVEWESNGQPENNYKTTPPVLDSDGSFFLYSRLTVDKSRWQQGNVFSCSVLHEALHSHYTQKSLSLSPGK light 2: not shown | binds | binds | – | –
TrasVH1VL1 x BevaVH3VL1_IgG1_LS_E345R (bispecific antibody) heavy 1: QVQLVQSGAEVKKPGSSVKVSCKASGFNIKDTYIHWVRQAPGQGLEWMGRIYPTNGYTRYAQKFQGRATITADESTSTAYMEVSSLRSEDTAVYYCSRWGGDGFYAMDYWGQGTLVTVSSASTKGPSVFPLAPSSKSTSGGTAALGCLVKDYFPEPVTVSWNSGALTSGVHTFPAVLQSSGLYSLSSVVTVPSSSLGTQTYICNVNHKPSNTKVDKKVEPKSCDKTHTCPPCPAPELLGGPSVFLFPPKPKDTLMISRTPEVTCVVVDVSHEDPEVKFNWYVDGVEVHNAKTKPREEQYNSTYRVVSVLTVLHQDWLNGKEYKCKVSNKALPAPIEKTISKAKGQPRRPQVYTLPPSRDELTKNQVSLTCLVKGFYPSDIAVEWESNGQPENNYKTTPPVLDSDGSFLLYSKLTVDKSRWQQGNVFSCSVLHEALHSHYTQKSLSLSPGK light 1: DIVMTQTPLSLPVTPGEPASISCRASQDVNTAVAWYLQKPGQSPQLLIYSASFRYTGVPDRFSGSGSGTDFTLKISRVEAEDVGVYYCQQHYTTPPTFGQGTKVEIKRTVAAPSVFIFPPSDEQLKSGTASVVCLLNNFYPREAKVQWKVDNALQSGNSQESVTEQDSKDSTYSLSSTLTLSKADYEKHKVYACEVTHQGLSSPVTKSFNRGEC heavy 2: QVQLVQSGAEVKKPGSSVKVSCKASGYTFTNYGMNWVRQAPGQGLEWMGWINTYTGEPTYAQKFQGRVTITADESTSTAYMELSSLRSEDTAVYYCAKYPHYYGSSHWYFDVWGQGTLVTVSSASTKGPSVFPLAPSSKSTSGGTAALGCLVKDYFPEPVTVSWNSGALTSGVHTFPAVLQSSGLYSLSSVVTVPSSSLGTQTYICNVNHKPSNTKVDKKVEPKSCDKTHTCPPCPAPELLGGPSVFLFPPKPKDTLMISRTPEVTCVVVDVSHEDPEVKFNWYVDGVEVHNAKTKPREEQYNSTYRVVSVLTVLHQDWLNGKEYKCKVSNKALPAPIEKTISKAKGQPRRPQVYTLPPSRDELTKNQVSLTCLVKGFYPSDIAVEWESNGQPENNYKTTPPVLDSDGSFFLYSRLTVDKSRWQQGNVFSCSVLHEALHSHYTQKSLSLSPGK light 2: not shown | binds | binds | – | –
IGF2_MMP2_TrasVH1VL1 x BevaVH3VL1_IgG1_LS_E345R uncut (bispecific antibody) heavy 1: GILEECCFRSCDLALLETYCAGGGGSPLGLAGGGGGSQVQLVQSGAEVKKPGSSVKVSCKASGFNIKDTYIHWVRQAPGQGLEWMGRIYPTNGYTRYAQKFQGRATITADESTSTAYMEVSSLRSEDTAVYYCSRWGGDGFYAMDYWGQGTLVTVSSASTKGPSVFPLAPSSKSTSGGTAALGCLVKDYFPEPVTVSWNSGALTSGVHTFPAVLQSSGLYSLSSVVTVPSSSLGTQTYICNVNHKPSNTKVDKKVEPKSCDKTHTCPPCPAPELLGGPSVFLFPPKPKDTLMISRTPEVTCVVVDVSHEDPEVKFNWYVDGVEVHNAKTKPREEQYNSTYRVVSVLTVLHQDWLNGKEYKCKVSNKALPAPIEKTISKAKGQPRRPQVYTLPPSRDELTKNQVSLTCLVKGFYPSDIAVEWESNGQPENNYKTTPPVLDSDGSFLLYSKLTVDKSRWQQGNVFSCSVLHEALHSHYTQKSLSLSPGK light 1: AYRPSETLCGGELVDTLQFVCGDRGFAFGGGGSPLGLAGGGGGSDIVMTQTPLSLPVTPGEPASISCRASQDVNTAVAWYLQKPGQSPQLLIYSASFRYTGVPDRFSGSGSGTDFTLKISRVEAEDVGVYYCQQHYTTPPTFGQGTKVEIKRTVAAPSVFIFPPSDEQLKSGTASVVCLLNNFYPREAKVQWKVDNALQSGNSQESVTEQDSKDSTYSLSSTLTLSKADYEKHKVYACEVTHQGLSSPVTKSFNRGEC heavy 2: GILEECCFRSCDLALLETYCAGGGGSPLGLAGGGGGSQVQLVQSGAEVKKPGSSVKVSCKASGYTFTNYGMNWVRQAPGQGLEWMGWINTYTGEPTYAQKFQGRVTITADESTSTAYMELSSLRSEDTAVYYCAKYPHYYGSSHWYFDVWGQGTLVTVSSASTKGPSVFPLAPSSKSTSGGTAALGCLVKDYFPEPVTVSWNSGALTSGVHTFPAVLQSSGLYSLSSVVTVPSSSLGTQTYICNVNHKPSNTKVDKKVEPKSCDKTHTCPPCPAPELLGGPSVFLFPPKPKDTLMISRTPEVTCVVVDVSHEDPEVKFNWYVDGVEVHNAKTKPREEQYNSTYRVVSVLTVLHQDWLNGKEYKCKVSNKALPAPIEKTISKAKGQPRRPQVYTLPPSRDELTKNQVSLTCLVKGFYPSDIAVEWESNGQPENNYKTTPPVLDSDGSFFLYSRLTVDKSRWQQGNVFSCSVLHEALHSHYTQKSLSLSPGK light 2: not shown | – | – | – | binding result [3]: binds; binding result [4]: binds
Beva_IgG1_LS (antibody, V domains shown, also called EAC291/EAC207) VH: EVQLVESGGGLVQPGGSLRLSCAASGYTFTNYGMNWVRQAPGKGLEWVGWINTYTGEPTYAADFKRRFTFSLDTSKSTAYLQMNSLRAEDTAVYYCAKYPHYYGSSHWYFDVWGQGTLVTVSS VL: DIQMTQSPSSLSASVGDRVTITCSASQDISNYLNWYQQKPGKAPKVLIYFTSSLHSGVPSRFSGSGSGTDFTLTISSLQPEDFATYYCQQYSTVPWTFGQGTKVEIKR | – | – | – | binding result [5]: no binding; binding result [6]: no binding
Tras x Beva_IgG1_LS (bispecific antibody, also called HER2 x VEGF bispecific antibody) heavy 1: not shown light 1: not shown heavy 2: EVQLVESGGGLVQPGGSLRLSCAASGYTFTNYGMNWVRQAPGKGLEWVGWINTYTGEPTYAADFKRRFTFSLDTSKSTAYLQMNSLRAEDTAVYYCAKYPHYYGSSHWYFDVWGQGTLVTVSSASTKGPSVFPLAPSSKSTSGGTAALGCLVKDYFPEPVTVSWNSGALTSGVHTFPAVLQSSGLYSLSSVVTVPSSSLGTQTYICNVNHKPSNTKVDKKVEPKSCDKTHTCPPCPAPELLGGPSVFLFPPKPKDTLMISRTPEVTCVVVDVSHEDPEVKFNWYVDGVEVHNAKTKPREEQYNSTYRVVSVLTVLHQDWLNGKEYKCKVSNKALPAPIEKTISKAKGQPREPQVYTLPPSRDELTKNQVSLTCLVKGFYPSDIAVEWESNGQPENNYKTTPPVLDSDGSFFLYSRLTVDKSRWQQGNVFSCSVLHEALHSHYTQKSLSLSPGK light 2: not shown | – | – | no binding | –
Tras x Beva_IgG1_LS_E345R (bispecific antibody) heavy 1: not shown light 1: not shown heavy 2: EVQLVESGGGLVQPGGSLRLSCAASGYTFTNYGMNWVRQAPGKGLEWVGWINTYTGEPTYAADFKRRFTFSLDTSKSTAYLQMNSLRAEDTAVYYCAKYPHYYGSSHWYFDVWGQGTLVTVSSASTKGPSVFPLAPSSKSTSGGTAALGCLVKDYFPEPVTVSWNSGALTSGVHTFPAVLQSSGLYSLSSVVTVPSSSLGTQTYICNVNHKPSNTKVDKKVEPKSCDKTHTCPPCPAPELLGGPSVFLFPPKPKDTLMISRTPEVTCVVVDVSHEDPEVKFNWYVDGVEVHNAKTKPREEQYNSTYRVVSVLTVLHQDWLNGKEYKCKVSNKALPAPIEKTISKAKGQPRRPQVYTLPPSRDELTKNQVSLTCLVKGFYPSDIAVEWESNGQPENNYKTTPPVLDSDGSFFLYSRLTVDKSRWQQGNVFSCSVLHEALHSHYTQKSLSLSPGK light 2: not shown | – | – | no binding | –

Reference: US20220153869A1 (TAVOTEK BIOTHERAPEUTICS HONG KONG, published 2022)
